This note sets out measurements from patent US20240350835A1 (AMBRX, published 2024).

In this test the target is T1, prostate specific membrane antigen (PSMA) (UniProt Q04609 1-750, limits assumed).
T1 construct: whole, on cells; Endogenous PSMA on human prostate cancer cell lines; also called PSMA antigen; PSMA receptor
The test can be described thus: FACS, HEK293 supernatants on LnCap cells expressing PSMA. The text has this: Example 2: Antibody Humanization-Parental mouse J591 (Liu et al., Cancer Research, 57, […], 1997) antibody was humanized by selecting human frameworks based on sequence identity with the mouse framework sequence. The light chain and heavy chain CDRs from the mouse antibody were grafted onto the human frameworks, respectively, and analyzed for binding to PSMA antigen. Humanized variants were generated by pairing four human heavy chain frameworks with six light chain frameworks. The variants were expressed transiently in HEK293 cells and the supernatants were tested for binding to the PSMA antigen expressed in LnCap cells by FACS. Table 4 describes a selected heavy chain variable region sequence and 4 light chain variable region sequences used for further studies. […] ID Nos: 8 and the light chain sequence of SEQ. […] ID Nos: 10 and the light chain sequence of SEQ. […] ID Nos: 12 and the light chain sequence of SEQ. […] ID Nos: 14 and the light chain sequence of SEQ. ID Nos: 15.
On the technique in general: Flow cytometry measures light scatter and fluorescence of single cells or particles in a stream.

T1 sequence (Q04609 whole entry): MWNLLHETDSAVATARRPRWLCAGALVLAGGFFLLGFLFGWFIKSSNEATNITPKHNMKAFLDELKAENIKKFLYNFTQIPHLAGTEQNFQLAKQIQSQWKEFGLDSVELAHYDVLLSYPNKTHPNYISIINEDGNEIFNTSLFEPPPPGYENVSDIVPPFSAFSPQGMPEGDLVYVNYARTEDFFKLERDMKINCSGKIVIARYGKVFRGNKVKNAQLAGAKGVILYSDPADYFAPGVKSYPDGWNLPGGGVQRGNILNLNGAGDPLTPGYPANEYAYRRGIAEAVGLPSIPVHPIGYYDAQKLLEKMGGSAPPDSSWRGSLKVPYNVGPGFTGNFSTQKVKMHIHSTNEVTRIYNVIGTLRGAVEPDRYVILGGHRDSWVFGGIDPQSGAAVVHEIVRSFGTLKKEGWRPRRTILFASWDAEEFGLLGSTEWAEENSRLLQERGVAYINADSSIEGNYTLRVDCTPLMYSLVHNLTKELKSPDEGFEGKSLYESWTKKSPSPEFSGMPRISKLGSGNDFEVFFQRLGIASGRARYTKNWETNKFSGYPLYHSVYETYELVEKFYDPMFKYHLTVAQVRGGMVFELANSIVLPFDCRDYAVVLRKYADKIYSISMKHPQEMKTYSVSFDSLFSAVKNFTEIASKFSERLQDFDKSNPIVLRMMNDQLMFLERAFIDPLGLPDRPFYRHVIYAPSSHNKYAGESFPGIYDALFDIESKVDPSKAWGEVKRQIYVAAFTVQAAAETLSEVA

B1: Humanized Anti-PSMA (full length) Variant 4 (antibody, human IgG1, kappa, V domains shown)
VH: QVQLVQSGAEVKKPGASVKVSCKASGYTFTEYTIHWVRQAPGQRLEWMGNINPNNGGTTYNQKFEDRVTITRDTSASTAYMELSSLRSEDTAVYYCAAGWNFDYWGQGTTLTVSS
VL: DIQLTQSPSFLSASVGDRVTITCKASQDVGTAVDWYQQKPGKAPKLLIYWASTRHTGVPSRFSGSGSGTEFTLTISNLQPEDFATYYCQQYNSYPLTFGGGTKVEIKR
notes: Humanized J591 (CDR graft), full length; expressed transiently in HEK293 cells, supernatant tested by FACS on LnCap cells; also called humanized anti-PSMA variant 4
Consider B1, for which the binding result is on record as “binds”.
